How the values were obtained:
Assay in all cases: two-hybrid library CCNG1;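 note: natural log of median RNA to DNA barcode read ratio; higher means stronger binding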
[1] = molecular target: T1, 4H1257-bH
T1 chain: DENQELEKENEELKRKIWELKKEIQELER

[2] = molecular target: T2, 4H1446-bH
T2 chain: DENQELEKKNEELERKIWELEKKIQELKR

[3] = molecular target: T3, 4H1828-bH
T3 chain: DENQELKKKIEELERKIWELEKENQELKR

[4] = molecular target: T4, 4H1845-bH
T4 chain: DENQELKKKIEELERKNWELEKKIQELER

[5] = molecular target: T5, 4H2442-bH
T5 chain: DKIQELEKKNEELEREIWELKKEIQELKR

[6] = molecular target: T6, 4H2576-bH
T6 chain: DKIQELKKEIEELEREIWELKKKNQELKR

[7] = molecular target: T7, 4H2618-bH
T7 chain: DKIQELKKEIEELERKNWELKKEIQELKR

[8] = molecular target: T8, 4H2667-bH
T8 chain: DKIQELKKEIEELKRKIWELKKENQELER

[9] = molecular target: T9, 4H2729-bH
T9 chain: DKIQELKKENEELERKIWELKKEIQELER

[10] = molecular target: T10, 4H3112-bH
T10 chain: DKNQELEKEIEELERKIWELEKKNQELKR

[11] = molecular target: T11, 4H3185-bH
T11 chain: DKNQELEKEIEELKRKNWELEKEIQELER

[12] = molecular target: T12, 4H331-bH
T12 chain: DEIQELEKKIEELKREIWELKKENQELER

[13] = molecular target: T13, 4H3354-bH
T13 chain: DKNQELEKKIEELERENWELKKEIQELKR

[14] = molecular target: T14, 4H338-bH
T14 chain: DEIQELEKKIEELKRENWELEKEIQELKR

[15] = molecular target: T15, 4H3381-bN
T15 chain: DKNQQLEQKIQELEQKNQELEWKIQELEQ

[16] = molecular target: T16, 4H3427-bH
T16 chain: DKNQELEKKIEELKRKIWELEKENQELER

[17] = molecular target: T17, 4H3782-bH
T17 chain: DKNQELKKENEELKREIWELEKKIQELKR

[18] = molecular target: T18, 4H3855-bH
T18 chain: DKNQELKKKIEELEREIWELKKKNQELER

[19] = molecular target: T19, 4H4001-bH
T19 chain: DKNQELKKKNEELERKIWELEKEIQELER

[20] = molecular target: T20, 4H454-bH
T20 chain: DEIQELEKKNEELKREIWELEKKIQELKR

[21] = molecular target: T21, 4H568-bH
T21 chain: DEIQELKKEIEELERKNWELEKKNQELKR

[22] = molecular target: T22, 4H607-bH
T22 chain: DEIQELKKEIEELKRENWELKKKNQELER

[23] = molecular target: T23, 4H687-bH
T23 chain: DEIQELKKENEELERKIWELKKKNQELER

[24] = molecular target: T24, 4H717-bH
T24 chain: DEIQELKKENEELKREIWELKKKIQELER

[25] = molecular target: T25, 4H72-bH
T25 chain: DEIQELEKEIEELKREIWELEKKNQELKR

[26] = molecular target: T26, 4H754-bH
T26 chain: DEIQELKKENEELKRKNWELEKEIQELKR

[27] = molecular target: T27, 4H797-bH
T27 chain: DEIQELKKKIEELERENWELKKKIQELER

[28] = molecular target: T28, 4H883-bH
T28 chain: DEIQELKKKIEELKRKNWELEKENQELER

[29] = molecular target: T29, 4H908-bH
T29 chain: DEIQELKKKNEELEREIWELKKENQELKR

[30] = molecular target: T30, 4H918-bH
T30 chain: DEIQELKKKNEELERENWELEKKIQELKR

[31] = molecular target: T31, 4H953-bH
T31 chain: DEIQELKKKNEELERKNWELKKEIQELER

[32] = molecular target: T32, 4H967-bH
T32 chain: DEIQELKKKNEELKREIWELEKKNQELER

B1: 4H1257-bH (peptide)
chain: DENQELEKENEELKRKIWELKKEIQELER
interaction score [1]: -1.44 | interaction score [2]: -0.833 | interaction score [3]: -0.108 | interaction score [4]: -1.83 | interaction score [5]: -0.172 | interaction score [6]: 0.394 | interaction score [7]: 0.0958 | interaction score [8]: -0.837 | interaction score [9]: 0.0373 | interaction score [10]: -0.383 | interaction score [11]: -0.808 | interaction score [12]: -0.435 | interaction score [13]: -0.79 | interaction score [14]: -0.528 | interaction score [15]: -0.693 | interaction score [16]: 0.386 | interaction score [17]: 0.911 | interaction score [18]: -0.288 | interaction score [19]: -0.377 | interaction score [20]: 1.26 | interaction score [21]: -0.399 | interaction score [22]: -0.218 | interaction score [23]: 0.172 | interaction score [24]: -0.541 | interaction score [25]: -2.61 | interaction score [26]: -0.282 | interaction score [27]: -0.73 | interaction score [28]: 0.223 | interaction score [29]: -0.669 | interaction score [30]: 0.00985 | interaction score [31]: -0.825 | interaction score [32]: -1.63

From publication PMC10397247
